# Assay results from patent US20190375799A1 (Affibody, published 2019).
# Where no end group is shown, it is not given here. The star is where a group is joined. Mal‑DOTA = maleimido-mono-amide-DOTA, O=C(O)CN1CCN(CC(=O)O)CCN(CC(=O)NCCN2C(=O)CC(*)C2=O)CCN(CC(=O)O)CC1; maleimide‑DOTA = maleimide-DOTA
# B1: PEP06923 (designed binder)
# chain: GSSLAEAKVLANRELDKYGVSDFYKRLINKAKTVEGVEALKLHILAALP
# notes: Expressed as MGSS-[PP###]; also called non-inventive polypeptide
# B2: PEP07975 (designed binder)
# chain: ALASAKEAANAELDC(maleimide‑DOTA)YGVSDFYKRLIDKAKTVEGVEALKDAILAALP-NH2
# notes: Made by solid phase peptide synthesis; also called DOTA-conjugated PEP07834; maleimide-DOTA-conjugated PEP07834-amide
# Assays:
# [1] = molecular target: T1, albumin from cynomolgus monkey (cynomolgus monkey, UniProt A2V9Z4 25-608); experiment: SPR (Biacore 2000): cynomolgus albumin immobilised to 1046 RU, PEP07986 injected at 40 nM for 5 min, then HBS-EP
# T1 construct: also called CSA
# Experimental: (§1) The albumin binding polypeptides were injected at a constant flow-rate of 50 μl/min for 5 minutes, followed by injection of HBS-EP for 60 minutes. The surfaces were regenerated with one injection of 25 μl HCl, 10 mM. All samples were run in duplicates.
# (§2) After subtraction of reference surface and buffer injection, curves were fitted to a 1:1 (Langmuir) binding model using BIAevaluation software with correction for mass transfer and with RUmax set as a local parameter.
# human serum albumin [2] = molecular target: T2, human serum albumin (human, UniProt P02768 25-609); experiment: SPR (Biacore 2000): human albumin immobilised to 1130 RU, PEP08296 injected at 40 nM for 5 min, then HBS-EP
# T2 construct: In the purification steps HSA-Sepharose (GE Healthcare) was used instead of ALBUCULT; also called HSA; ALBUCULT (Novozymes)
# Experimental: as §1, §2
# albumin from mouse [3] = molecular target: T3, albumin from mouse (mouse, UniProt P07724 25-608); experiment: SPR (Biacore 2000): mouse albumin immobilised to 858 RU, PEP08296 injected at 40 nM for 5 min, then HBS-EP
# T3 construct: also called MSA
# Experimental: as §1, §2
# albumin from rat [4] = molecular target: T4, albumin from rat (rat, UniProt P02770 25-608); experiment: SPR (Biacore 2000): rat albumin immobilised to 831 RU, PEP08296 injected at 40 nM for 5 min, then HBS-EP
# T4 construct: also called RSA
# Experimental: as §1, §2
# albumin from dog [5] = molecular target: T5, albumin from dog (dog, UniProt P49822 25-608); experiment: SPR (Biacore 2000): dog albumin immobilised to 1053 RU, PEP08296 injected at 40 nM for 5 min, then HBS-EP
# T5 construct: also called DSA
# Experimental: as §1, §2
# [6] = molecular target: T1, albumin from cynomolgus monkey; experiment: SPR (Biacore 2000): cynomolgus albumin immobilised to 1046 RU, PEP08296 injected at 40 nM for 5 min, then HBS-EP
# Experimental: as §1, §2
# albumin from rat [7] = molecular target: T4, albumin from rat; experiment: SPR (Biacore 2000): rat albumin immobilised to 831 RU, PEP06923 injected at 40 nM for 5 min, then HBS-EP
# Experimental: as §1, §2
# [8] = molecular target: T1, albumin from cynomolgus monkey; experiment: SPR (Biacore 2000): cynomolgus albumin immobilised to 1046 RU, PEP06923 injected at 40 nM for 5 min, then HBS-EP
# Experimental: as §1, §2
# albumin from dog [9] = molecular target: T5, albumin from dog; experiment: SPR (Biacore 2000): dog albumin immobilised to 1053 RU, PEP06923 injected at 40 nM for 5 min, then HBS-EP
# Experimental: as §1, §2
# albumin from mouse [10] = molecular target: T3, albumin from mouse; experiment: SPR (Biacore 2000): mouse albumin immobilised to 858 RU, PEP06923 injected at 40 nM for 5 min, then HBS-EP
# Experimental: as §1, §2
# human serum albumin [11] = molecular target: T2, human serum albumin; experiment: SPR, Biacore 2000, HSA immobilised
# T1 sequence (A2V9Z4 25-608 limits assumed): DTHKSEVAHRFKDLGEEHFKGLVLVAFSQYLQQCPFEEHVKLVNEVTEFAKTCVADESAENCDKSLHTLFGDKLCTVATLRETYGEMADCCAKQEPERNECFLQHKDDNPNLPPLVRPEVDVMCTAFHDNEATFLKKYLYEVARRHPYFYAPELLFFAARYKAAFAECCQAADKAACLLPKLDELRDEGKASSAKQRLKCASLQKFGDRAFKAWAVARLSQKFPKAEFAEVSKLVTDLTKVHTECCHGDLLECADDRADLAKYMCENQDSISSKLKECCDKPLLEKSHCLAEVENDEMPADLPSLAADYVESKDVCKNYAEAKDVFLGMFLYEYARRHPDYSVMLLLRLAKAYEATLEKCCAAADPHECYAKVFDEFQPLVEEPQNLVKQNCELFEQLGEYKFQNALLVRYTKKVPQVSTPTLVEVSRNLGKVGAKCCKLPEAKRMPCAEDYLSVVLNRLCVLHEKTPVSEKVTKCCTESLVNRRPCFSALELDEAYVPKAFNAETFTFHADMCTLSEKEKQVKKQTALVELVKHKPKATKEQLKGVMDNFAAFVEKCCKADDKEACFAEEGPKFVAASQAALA
# T5 sequence (P49822 25-608 limits assumed): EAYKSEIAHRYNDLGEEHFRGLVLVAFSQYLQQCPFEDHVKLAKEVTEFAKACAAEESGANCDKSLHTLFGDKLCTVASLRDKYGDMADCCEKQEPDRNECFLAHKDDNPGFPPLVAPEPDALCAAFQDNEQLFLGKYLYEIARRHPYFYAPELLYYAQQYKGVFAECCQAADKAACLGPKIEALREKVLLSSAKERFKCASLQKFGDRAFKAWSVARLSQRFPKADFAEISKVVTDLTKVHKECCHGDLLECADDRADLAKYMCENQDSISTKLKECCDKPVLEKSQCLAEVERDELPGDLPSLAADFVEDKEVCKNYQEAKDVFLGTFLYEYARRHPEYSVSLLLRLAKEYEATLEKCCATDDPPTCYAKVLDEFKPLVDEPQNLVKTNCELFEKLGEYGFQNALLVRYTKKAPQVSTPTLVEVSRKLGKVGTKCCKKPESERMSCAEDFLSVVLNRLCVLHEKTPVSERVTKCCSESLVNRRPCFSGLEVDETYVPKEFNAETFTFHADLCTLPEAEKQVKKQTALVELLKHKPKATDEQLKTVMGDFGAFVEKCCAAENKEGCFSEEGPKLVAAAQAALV
# T4 sequence (P02770 25-608 limits assumed): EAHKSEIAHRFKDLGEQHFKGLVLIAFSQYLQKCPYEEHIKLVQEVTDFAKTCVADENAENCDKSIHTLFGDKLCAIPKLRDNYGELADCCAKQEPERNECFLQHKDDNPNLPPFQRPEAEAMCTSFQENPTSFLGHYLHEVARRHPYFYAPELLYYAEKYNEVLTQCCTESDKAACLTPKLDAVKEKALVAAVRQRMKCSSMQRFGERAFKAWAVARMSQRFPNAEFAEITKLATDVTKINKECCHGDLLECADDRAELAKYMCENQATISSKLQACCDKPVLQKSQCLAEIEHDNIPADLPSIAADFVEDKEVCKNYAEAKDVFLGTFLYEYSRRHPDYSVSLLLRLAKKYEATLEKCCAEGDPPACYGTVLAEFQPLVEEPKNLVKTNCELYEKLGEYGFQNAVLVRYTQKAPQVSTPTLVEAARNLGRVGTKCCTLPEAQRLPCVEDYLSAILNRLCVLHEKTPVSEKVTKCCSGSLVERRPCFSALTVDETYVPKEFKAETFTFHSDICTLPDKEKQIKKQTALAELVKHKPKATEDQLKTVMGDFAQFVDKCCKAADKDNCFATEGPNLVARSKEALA
# T3 sequence (P07724 25-608 limits assumed): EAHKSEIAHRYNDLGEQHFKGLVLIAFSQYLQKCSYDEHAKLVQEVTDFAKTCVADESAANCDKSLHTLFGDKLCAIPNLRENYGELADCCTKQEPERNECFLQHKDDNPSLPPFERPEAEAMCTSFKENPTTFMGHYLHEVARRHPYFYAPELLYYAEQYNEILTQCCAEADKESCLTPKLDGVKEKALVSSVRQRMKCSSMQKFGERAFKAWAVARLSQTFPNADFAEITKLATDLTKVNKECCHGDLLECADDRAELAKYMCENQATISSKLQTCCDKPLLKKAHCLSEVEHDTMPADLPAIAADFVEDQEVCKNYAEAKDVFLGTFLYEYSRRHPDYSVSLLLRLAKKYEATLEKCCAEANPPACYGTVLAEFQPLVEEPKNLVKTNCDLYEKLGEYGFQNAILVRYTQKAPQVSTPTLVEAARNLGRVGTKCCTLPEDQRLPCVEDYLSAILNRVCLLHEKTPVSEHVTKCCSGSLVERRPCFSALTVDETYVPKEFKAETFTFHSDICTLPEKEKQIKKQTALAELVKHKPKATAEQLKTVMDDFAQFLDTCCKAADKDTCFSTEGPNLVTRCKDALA
binder,measurement,setting,value
GSLAEAKEAANAELDSYGVSDFYKRLIDKAKTVEGVEALKDAILAALP (designed binder) [PEP07986],binding result,[1],binds
"GSLAEAKEAANAELDC(Mal‑DOTA)YGVSDFYKRLIDKAKTVEGVEALKDAILAALPG (designed binder, also called DOTA-conjugated PEP08185) [PEP08296]",binding result,human serum albumin [2],binds
same,binding result,albumin from mouse [3],binds
same,binding result,albumin from rat [4],binds
same,binding result,albumin from dog [5],binds
same,binding result,[6],binds
B1,binding result,albumin from rat [7],binds
same,binding result,[8],binds
same,binding result,albumin from dog [9],binds
same,binding result,albumin from mouse [10],binds
B2,binding result,human serum albumin [11],binds
